Measured values: PMC8808565 (iScience, 2009)

Biological target: SARS-CoV-2 (2019-nCoV) Spike RBD-His Recombinant Protein, Biotinylated (SARS-CoV-2, UniProt P0DTC2, biotin (biotinylated; site not stated))
Test: SPR

## GIGDPVTCLKSGAICHPVFCPRRYKQIGTCGLPGTKCCKKP [Human beta defensin 2 (hBD-2), recombinant]
  Kd: 1.8 ± 1.1 µM
